Rate data for one molecule are collected here from patent US20040171019A1, “PIN1 peptidyl-prolyl isomerase polypeptides, their crystal structures, and use thereof for drug design” (Agouron Pharmaceuticals, Inc., priority 2002, published 2004).

For this assay, the system named is Suc-AEPF-pNA peptide substrate. Nature of the assay: Peptidyl-prolyl isomerase activity of PIN1 polypeptides without inhibitor. Type of assay: biochemical. The conditions noted are these: 0.033 nM enzyme, 100 μM Suc-AEPF-pNA. An excerpt: PIN1 is a phosphorylation dependent peptidyl-prolyl isomerase. Peptidyl-prolyl ismomerase activity for the peptides of the invention can be measured using a spectrophotometric assay based on the coupled chymotrypsin catalyzed, cis-trans conformation dependent cleavage of a para-nitroanaline-containing peptide substrate. This rotamase assay is described by Kofron et al. (Biochemistry 30, […] (1991)) and its application to PIN1 isomerase activity is described by Yaffe et al. (Science 278, 1957-1960 (1997)). Cleavage of the isomerized peptide releases para-nitroanaline, which can be monitored by an increase in absorbance at 390 nm. The PIN1 peptide substrate, succinyl-alanine-[…]-proline-phenylalanine-paranitroaniline (Suc-AEPF-pNA) (Bachem California, Inc., Torrence, Calif.) is kept in a predominantly cis conformation with an anhydrous TFE (trifluorethanol)/LiCl (lithium chloride) solvent mixture. […]
Peptidyl-prolyl isomerase reactions were carried out in 25 mM MOPS [3-(N-Morpholino)propanesufonic acid], pH 7.5, 0.5 mM TCEP [Tris(2-carboxyethyl)phosphine hydrochloride], 2% DMSO, 5 μl of a 25 mg/ml solution of Subtilisin Carlsberg Protease (Sigma), […], and 100 μM Suc-AEPF-pNA peptide substrate. […] The absorbance at 390 nm was monitored continuously until all substrate had been converted to the cleaved product. […]

B1: mutant PIN1 PPIase (K77Q/K82Q): mutant PIN1 PPIase polypeptide (SEQ ID NO:4) devoid of the WW domain, with K77Q and K82Q substitutions (protein)
chain: GSHMGKNGQGEPARVRCSHLLVKHSQSRRPSSWRQEQITRTQEEALELINGYIQKIKSGEEDFESLASQFSDCSSAKARGDLGAFSRGQMQKPFEDASFALRTGEMSGPVFTDSGIHIILRTE
As to B1, the rate was 0.2.
